“And” between values parts separate entries of the source, which are not always exact repeats. Equal entries are not always repeated.
B1: staphylococcal complement inhibitor SCIN-A (natural protein)
chain: STSLPTSNEYQNEKLANELKSLLDELNVNELATGSLNTYYKRTIKISGQKAMYALKSKDFKKMSEAKYQLQKIYNEIDEALKSKY

Legend:
[1] = biological target: complement C3b, site-specifically biotinylated at the thioester moiety (UniProt P01024); assay: SPR
complement C3b = complement C3b (UniProt P01024); assay: ITC
[2] = biological target: complement C3b, site-specifically biotinylated at the thioester moiety (UniProt P01024); assay: SPR; remark: listed apart in the source

Molecule	decay half-life of the convertase [1]	Kd (complement C3b)	stoichiometry N (complement C3b)	Kd [2]
Bb fragment of factor B (from UniProt P00751 260-764) (domain or fragment)	5 to 6 min			
B1		264 nM	0.75	169 nM and 177 nM
